Data taken from FireProtDB (doi:10.1002/pro.2375).

B1: Amylosucrase, Q9ZEU2 (parent)
chain: MLTPTQQVGLILQYLKTRILDIYTPEQRAGIEKSEDWRQFSRRMDTHFPKLMNELDSVYGNNEALLPMLEMLLAQAWQSYSQRNSSLKDIDIARENNPDWILSNKQVGGVCYVDLFAGDLKGLKDKIPYFQELGLTYLHLMPLFKCPEGKSDGGYAVSSYRDVNPALGTIGDLREVIAALHEAGISAVVDFIFNHTSNEHEWAQRCAAGDPLFDNFYYIFPDRRMPDQYDRTLREIFPDQHPGGFSQLEDGRWVWTTFNSFQWDLNYSNPWVFRAMAGEMLFLANLGVDILRMDAVAFIWKQMGTSCENLPQAHALIRAFNAVMRIAAPAVFFKSEAIVHPDQVVQYIGQDECQIGYNPLQMALLWNTLATREVNLLHQALTYRHNLPEHTAWVNYVRSHDDIGWTFADEDAAYLGISGYDHRQFLNRFFVNRFDGSFARGVPFQYNPSTGDCRVSGTAAALVGLAQDDPHAVDRIKLLYSIALSTGGLPLIYLGDEVGTLNDDDWSQDSNKSDDSRWAHRPRYNEALYAQRNDPSTAAGQIYQGLRHMIAVRQSNPRFDGGRLVTFNTNNKHIIGYIRNNALLAFGNFSEYPQTVTAHTLQAMPFKAHDLIGGKTVSLNQDLTLQPYQVMWLEIA

Variants of: B1
Details: Neisseria polysaccharea; pH 7; Thermal; DSF; Tris 50 mM; structure 1G5A; whole UniProt chain shown

Row | Variant | change of melting temperature, mutant - wild type (higher = more stable) [°C]
1 | R517A | 0
2 | R292V | 1.8
3 | R292K | 1.6
4 | R292H | 0.4
5 | F258Y | -0.8
6 | F258N | -3.2
7 | D515I | 0.6
8 | D515A | 0.8
9 | Y155F | -0.2
10 | Y155A | -1
11 | Y155N | -1
12 | H195D | -3.4
13 | H195L | -6.4
14 | H195I | -6.6
15 | H195V | -4
16 | H195Y | -3.2
17 | H195W | -5.8
18 | H195T | -4
19 | H195N | -1.4
20 | H195C | -0.2
21 | H195G | -2.8
22 | H195K | -0.4
23 | H195Q | -3
24 | H195M | -0.2

Row | Variant | change of melting temperature, mutant - wild type (higher = more stable) [°C]
25 | H195A | -1.6
26 | H195R | -5
27 | H400K | -1.6
28 | H400C | 0.8
29 | H400I | -0.2
30 | H400V | 0.2
31 | H400T | 0.4
32 | H400G | 0.8
33 | H400L | -0.4
34 | H400W | 0.4
35 | H400E | 0.4
36 | H400S | 0.2
37 | H400M | 0.4
38 | H400P | 2.2
39 | H400Q | -0.4
40 | H400Y | 2
41 | H400F | -2.4
42 | H400N | -0.2
43 | D152E | -1.4
44 | D152I | -1.6
45 | D152A | 0.2
46 | R454F | 0.2
47 | R454E | -2.2
48 | R454A | -0.2
